A short description of the data set: soluble on expression in E. coli; label from the status in PepcDB or PDB records.
As to “MEKLLQWSIANSQGDKEAMARAGQPDPKLLQQLFGGGGPDDPTLMKESMAVIMNPEVDLETKLVAFDNFEMLIENLDNANNIENLKLWEPLLDVLVQTKDEELRAAALSIIGTAVQNNLDSQNNFMKYDNGLRSLIEIASDKTKPLDVRTKAFYALSNLIRNHKDISEKFFKLNGLDCIAPVLSDNTAKPKLKMRAIALLTAYLSSVKIDENIISVLRKDGVIESTIECLSDESNLNIIDRVLSFLSHLISSGIKFNEQELHKLNEGYKHIEPLKDRLNEDDYLAVKYVL”, the “soluble on expression in E. coli” value is listed as “soluble”.
The entry for “MEKLVEWENCVSVIEAAILKHKYKQKVNKNIPSLLRVQAHIRKKMVAQ” is “soluble”; for “MEKTLETVPLERKKREKEQFRKLFIGGLSFETTEESLRNYYEQWGKLTDCVVMRDPASKRSRGFGFVTFSSMAEVDAAMAARPHSIDGRVVEPKRAVAREESG” it is “soluble”; for “MEKVMKCHRVEELLQLLEPEWHKDSELNLIQFLLKLAQEAGYQGALEDLTDDVLIYHLKMRNSAKDAVIPGLKKDYEDDFKTAILRARGIIK” it is “not soluble”.
The value for “MELIRNLDDANMGEVYWRLYRRYISLFIENEADDAYAWRCARALDELDDAVIERLCAASLRYRAARLERLGESAEEVAPARGVLERIEPGELIVPDPEQGDEAVIHLSLNCEWDREHGMEWIVRGGEVLYVGPFHGEDPWRDFTVKEPWNYA” was “not soluble”; that for “MELLVKMGWDDWFAAHAGASSDAGRPGRVVAEQRGEYRVRTADGEVAAILTGRAMRETAGDRLERPVVGDWVIVEPVAGDSTVLVRAVLPRRTILARRESGRGAEVQPVAANVDIVFIVAGLDGALNLRRLERFLAAARESGAEPVVLLTKSDLAGDPAAPAEEAATVAPGIRVMTVSSLDGAGVDEVGALLAPGVTACFIGPSGVGKSSLVNLLAGDPVMAIGAVRERDAKGRHTTTHRQLILLPGGGIVIDTPGMREFGLWQVDEGIDAAFPEIAELAAGCRFHDCSHRHEPGCAVRTALAEGGLDPGRYGSYLKLRLEEETMATLADAEGRRERKKGERRMAKGLRAVLRKKGKK” was “not soluble”.
In the case of “MELQQRTLTIGLGNDIAVQTEGVGFIRGQLVADHAEINSVFKVVVKAALIVVKTLFADGYPHAIFQRFLMPDNRNRQHRADKAVGLVGIADDAEIRIAFCLISNAFFFTELIIGIGCGKADCGHFFVVFAAGSASVHKVSDFQNEFAVKPFAGKQHPHQYIGNHAGINRPPIISPQPCQQSGKRPVDYKKYAPNLRYPAGIAHGFFRQVGLLQPRKFFNHRLPGKQAAAEHRQHHQIDEDGIPIHRIMPPEHQYCGKKQCNKQSRITLLGQFGSQGAQQPQPAHRRRQPNKPARLPAVYSGLTKTSTALPRLAVLSAASSPCPDFC”, the “soluble on expression in E. coli” value is “not soluble”.
The entry for “MELSPVFARRLYLALLVESLERPNVPKLIEKTGWPRRTIQDVIKAMPGIGIELNFVQDGRRHNDGYYQLSDWGPFDSQWVTERKKDIAASLGFCA” is “not soluble”; for “MELSSEHKALFSLLRAGLWEREPDDLSPFPLTDAQWWNVYRMAVRQTVTGIVCRGLHHLPEALLPGDALMIRWVAETDRIERKNRRMDAVVCLLAQRMGRNGLHPVLLKGQGVAAFYEHPLTRECGDIDLCFLSEEEEREAAELMRRVGCRTEKQPDGSNCYSWQGVEVEHHTRLFDLHNPLLKVYLSALVREHGFTEFRPGGRDGLPEGNQSGEFPATISVPSPLPNLLLLNAHLLKHLLGHGVGLRQFCDMARAYHTLCGSYSPEGLEAVYRRTGLLRWSAQLHTFLTEYLGLHRAELPYADTDACSSPELLRIVLEGGNFGQYGGTKGKASQARWERKLRTFLSFWKHRGFSSAYARKEAFWISVRLIIGNLR” it is “not soluble”; for “MELTKIRVKTIGYYHRDSEMKATPGRLPKNLNLACLTPMQNKEKFPNMNIEVLDSGKGELMMESLLDYISQTSCLQDEQPGFVTNKQLLVALTRTGSLAIHLFRWNGTTYLLKFNEDESVNQNFGAAFEHHCTKTDDPINENEPVRKAVMIAEIPRGKGVHSVLYSGQIDAVDNEVNRMHYELKVLSGGLTEHFWKTKSCMFYWQAVFGKADVLIIGSRTGKCPNDPKTTWPKEWPPFSVYQVETLEQNQIPESAAEECLKKVLMDPAPEWKPLEGEESVCYFLDLVEEYVKNNGDCYVFTRSDENPDWIVKEDEESVAEFRDVVRHYLAS” it is “not soluble”.
Take “MELYELAQAAGGGIDPDVFKILVDLLKLNVAPLAVFQMLKSMCAGQRLASEPQDPAAVSLPTSSVPETRGRDKGSAALGGVLALAERSNHEGSSQRMPRQPSATRLPKGGGPGKSPTQGST”: the “soluble on expression in E. coli” value is “soluble”.
The entry for “MEMAAAVRKCATFIEEKIGKHIDVTTMAYNRLMNHIRHMVSRAATGEKLKVDLNQFIEKNYPESFALAGDICKELGKDLNHEFLDNETGYLAIHIEQIKCDEMVSE” is “not soluble”; for “MENAFKNKALYHQLVDLLQERIETCMIPHDKLPSERELTAQYGVSRTTVRLALQELENRGSIYRRHGKGTFVSDIKKEAADLAGAYSFTEQMKGLGRKPHTRILSFEKLEADKFICQHLNLSLGEAVFKLSRLRIADNEPLMVEDTYLPVKFFLSLTDQLLRSKPLYDLFSEDFKQTVRLADEELYASIASKEDAKLLMIPEGAPVLHLARQTYNMKNEIIEFTLSVARADQFHYQIRHIRNS” it is “not soluble”.
The value for “MENAGKATSLQSSRDLFHRLMSENSSGGWEKSWEAGATPWDLGKPTPVIAHLVETGSLPNGRALVPGCGTGYDVVAMASPDRHVVGLDISKTAVERSTKKFSTLPNAKYFSFLSEDFFTWEPAEKFDLIFDYTFFCAFEPGVRPLWAQRMEKLLKPGGELITLMFPIDERSGGPPYEVSVSEYEKVLIPLGFEAISIVDNELAVGPRKGMEKLGRWKKSSTFHSTL” was “soluble”.
The value for “MENEMKEKAVIFTGNSISHEDAKKILLANYQPPVRRFQLEKFIQQGYKVMGIIDGIFFDRAAVGHREIISALNAGVRVVGGASMGALRASELDTHGMIGVGKVYEWYRDGVIESDDEVAISTNPETFEPISVPLVNIRETLKAALGAGILSEKEYEDILELAISTYYPDRSYLGLTKEGAKKGLISEEKRKLLLDFCINSEVDVKKRDAVLVIETVKRLVEETEV” was “not soluble”; that for “MENIFLKRLEFKAFEEDSVFSKIEGLNKFNSLNFKKPITFFSGENGTGKSTLLEAIAVNWGFNPEGGSINFNFSTKDTHLDLHNYLTVGKSVKRATDGFFLRAESFYNVATYAENIDLDFSEYGDKSLHHQSHGESFLNLVNHRFRGNGLYLLDEPEAALSPQRQLALMISIKKLIDEGSQFIIVSHSPILLAMPDSQIISFDKDSPLEITYEESMPYEITSLFLNNKNRILSHLFAE” was “not soluble”; that for “MENKTVNQVIHYVYEGGGEAATDHNATVVFSQTITTDKVTGEKTYSDWTADNGDSFASVTSPVIDGYTADQLKVSEMTGITVDTEDISVTVTYTRNQGTIDVTYIDETTGKILEHHHHHH” was “not soluble”.
Regarding “MENLQIGVVGVGVMGKSLALNFESKGYSVALYDISKEKVDETIEENRGKNLVGTHIVEEFVNSLESPRKILLMVNAGEITDKAIDSLVPHLDKGDILIDGGNTYFVDTIRRNKRLAEEGINFIGAGVSGGEEGALKGPSIMPGGQKDAYEKVKDMLENISAKVNNEPCCSYIGPNGAGHYVKMVHNGIEYGDMQLICEAYFFLKQTLDLTAEEFHEIFAEWNKGELNSYLIEITADIFKKKDEETGKPLVDVILDTAGQKGTGKWTSQSALDLGISLPIITESVFARCISALKEERVNASKVLSGPKDKTAIGVEKAELIEAVRQALYMSKICSYAQGFTQLKAASEEYNWNLDFGSISMLWRGGCIIRAAFLQNIKEAYETNTDLPNLLLDPYFKEIVESYQGGLRQIISMAVQQGIPIPAFSAAISYYDSYRTAKLPANLLQAQRDYFGAHTYKRVDKEGTFHTKWI”, the “soluble on expression in E. coli” value was “not soluble”.
For “MENQAALCVLLSDRANTHAHIFVHPHFLSFTLTKSCFCCGNLIYWFVTLYLNFRSRKKSEKMRSRSGSGVRLDRILFMVEQTICSHQNPITALFANQKDFPGHAWVRDNVYIAQALWALYRAYMKCADFDEDLTKAKELGFTCVKMMQSILECLMRQAEKVELFKKYQRPLDALHSKFAVGTKGTVCGDADWGHLQMDAISLYLLTLAQITASGLQVVRNFDEVAFIQNLVYYIETGYRTPDYGVWERGDKTNQGIRELNASSIGMVKAALQALNDVGDLFVDGSRGSVVHVLPDEIEQCSAVLSSMLPRESFSKETDAALLGIISYPAFCVEDPELVSQTRETITQRLLGKYGCRRFMRDGYKTVLEDASRLYYNKSELQQFEDIECEWPIFLCYLILDAMYSKDDDAVEAYWRQLESVLVLSDKGFRLVPELYVVLKEHVSAEKAHPGTQDRVPGGATPFLWAQSLYVIICLLYEGFLLPAELDPLSRRLSVYEKRPPCEVQVTVLAESLDVQRELRAHDIHVQCVDEIDPVFTILPASALGQLLAKIGESKKLNLSGRPLDRPIGLLSTSRLYQIGNKFVIFTPQFMDSRRSHLMYDIRILTDEWSSELQYIYASWNSVSISGRPLVVLVITQGMLSTEGLSHFSNIHLNRHMKSTVIGAIKKINTGYLSGARVVMKDLSDFFRTTAVSKMEFRDKSAEDTLRSVAAEKVQFTLLTEDATEAKNEKITTPRGPRTLRRGESVKDRSAYTAVHKASMRHRSIALDSNDADLMKLRLAYKSRPRDLQDMDSTYQSPPPTQTPLGLVKEHSSGELRQQLLKTTRRGAENETTHRDLTAEQMNEMKADDLLDLVNETTVLEEQISIVHCLWMKFGPDYDTELGCQHITVRMLMEEVHTKACEAREWALVRLTAGLLKKQLEEPQQSCYSSFVSPFELKSMIFSLLSGRLLEEYAEDGIHYSDTIRETRTGIGSFRRQIEERKSLRKSTRSVGGLEIPKEEDEDEEADEDDFQFGIWLRHRRIDGALNRVPNGFYAILWDTVHKMPHGVKINDTVLHWGLTQEMTRKEIKFALESEEALNRIAEPEYRELVVETLWLLGRLEKLVLLEQPNIPRDRPLDVDHILHVANQIFVDHNKHLETIVMECCASSNPNNTRCDGARNICKHFYDSAPAGEYGTSHYIIRALMQLYS”, the “soluble on expression in E. coli” value is on record as “not soluble”.
Take “MENQTKCNISYRRIRIDKKKPPKTALKIKCLFTFSGFQEMLHVDKVDSLQTEKVNIRASGLVEWSCYTFILRLHYDRGTYASFCVARSDSLGCIDLSRDAPIRGTYTEVDQMGLFISIEPTQSIRPGHFFKTYDPKTYYYTLQLLDDSKKIIDEIHLKKHWKHPLVEQINVEQNGLYGTLFKPPGKGPFPAVIFIPGSNGMLESGYAAVLASEGFLTFTFAYFAYKKDLPKLIPDVDIEFFEKPIEYVQNSPYCSGKIGLVGQSFGGLTANYLSTKYHQVSAVVALNCSAAFCRDNAVMKENGKPMETQILDEGMSDFVNQVLRQKPAFRDLYSNLTPTTSIPWARAPKNTAYRIVQCYDDMLVDAVPSIINICGNLRKTGHHVESELVPGGHFLYFPYFPHHGIIYNAQINMLWGFGGECYQHSKSQETTWKKNVEFFKKHLGDVKRIPEWKRESTVTLPVSTKSSKSLQCKL”: the “soluble on expression in E. coli” value is “not soluble”.
The entry for “MENRGILFDKDGTCIRFDTLWQAGLQACFETLSMLAPHHSAEIKKILAIQEQRFLQKHLLDEVLYQELYQELAQFEELVEQGISSRWLEQFFYDYLRKNLKKIEPIGDLKQLFLELKRKNYKIGLATSDTLPATMLIMEYLGLTEMFDFIATGDRYLPKPDADMLQAFCQSCQLKATEVIMVGDSLVDVFMGTCHGKAGIGVLTGNCQSTDFEKFEVAYFRDIHEIPYQELWENTKKKKIYYF” is “not soluble”; for “MENSIEAYLADSREKVTLGTVVDCFKGKAVSSKVVPGDVGLINLSDMGTLGIQYHQLRTFQMDRRQLLRYLLEDGDVLIASKGTLKKVCVFHKQNRDVVASSNITVLRPQKLLRGYYIKFFLDSPIGQALLDVADHGKDVINLSTKELLDIPIPVIPLVKQDYLINHYLRGLTDYHRKLNRAEQEWEYIQNEIQKGLG” it is “soluble”.

(Values after the DeepSol protein solubility set.)
